Changes are numbered by the printed parent chain. Values joined by “and” are separate entries in the source; they are usually repeats but may differ in a detail not shown here. Identical values can stand only once.
Legend:
[1] = molecular target: T1, human chimeric receptor FGFR3-Fc (R&D Systems) (human, UniProt P22607 23-375); test: solid phase receptor binding assay
T1 construct: extracellular domain; not shown: human Fc
T1 sequence (looked up): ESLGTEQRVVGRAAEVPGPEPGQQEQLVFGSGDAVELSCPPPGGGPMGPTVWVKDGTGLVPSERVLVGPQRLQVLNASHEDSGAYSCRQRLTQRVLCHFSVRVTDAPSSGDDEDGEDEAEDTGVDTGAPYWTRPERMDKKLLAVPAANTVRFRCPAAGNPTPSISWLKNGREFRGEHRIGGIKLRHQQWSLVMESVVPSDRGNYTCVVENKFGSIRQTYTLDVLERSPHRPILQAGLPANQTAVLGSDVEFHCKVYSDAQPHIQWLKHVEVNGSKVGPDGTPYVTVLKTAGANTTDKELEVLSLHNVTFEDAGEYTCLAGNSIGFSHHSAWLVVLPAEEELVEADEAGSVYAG

murine FGFR4 = molecular target: T2, murine FGFR4 (mouse, UniProt Q03142 17-799); test: told with the epitope alignment
T2 construct: whole, on cells; full-length, on transfected BOSC23 cells; also called murine receptor; murine FL FGFR4
T2 sequence (looked up): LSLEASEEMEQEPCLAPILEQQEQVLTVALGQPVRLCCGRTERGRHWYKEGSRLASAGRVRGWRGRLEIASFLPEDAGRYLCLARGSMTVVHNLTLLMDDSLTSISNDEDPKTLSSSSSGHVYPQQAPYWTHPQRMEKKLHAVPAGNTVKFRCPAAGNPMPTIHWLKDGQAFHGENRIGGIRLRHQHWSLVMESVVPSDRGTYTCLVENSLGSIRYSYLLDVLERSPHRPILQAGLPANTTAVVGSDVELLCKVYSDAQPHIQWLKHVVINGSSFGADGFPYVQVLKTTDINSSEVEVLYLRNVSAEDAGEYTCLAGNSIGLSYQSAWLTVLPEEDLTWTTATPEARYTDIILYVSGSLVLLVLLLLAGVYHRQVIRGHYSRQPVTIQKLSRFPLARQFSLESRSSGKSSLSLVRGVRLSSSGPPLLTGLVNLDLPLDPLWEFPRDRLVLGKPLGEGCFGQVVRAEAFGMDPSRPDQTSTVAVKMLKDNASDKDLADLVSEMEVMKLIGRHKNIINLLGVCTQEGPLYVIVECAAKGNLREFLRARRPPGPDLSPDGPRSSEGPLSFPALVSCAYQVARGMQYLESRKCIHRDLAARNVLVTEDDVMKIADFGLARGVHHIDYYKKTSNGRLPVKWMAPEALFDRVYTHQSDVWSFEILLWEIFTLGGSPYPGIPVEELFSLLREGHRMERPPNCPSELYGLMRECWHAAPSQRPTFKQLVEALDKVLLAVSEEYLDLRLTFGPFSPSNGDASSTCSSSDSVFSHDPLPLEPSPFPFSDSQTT

[2] = molecular target: T3, human chimeric receptor FGFR4-Fc (R&D Systems) (human, UniProt P22455 22-369); test: competition ELISA, FGF19 binding to FGFR4-Fc
T3 construct: extracellular domain; bought; also called hFGFR4-Fc; not shown: human IgG Fc
T3 sequence (looked up): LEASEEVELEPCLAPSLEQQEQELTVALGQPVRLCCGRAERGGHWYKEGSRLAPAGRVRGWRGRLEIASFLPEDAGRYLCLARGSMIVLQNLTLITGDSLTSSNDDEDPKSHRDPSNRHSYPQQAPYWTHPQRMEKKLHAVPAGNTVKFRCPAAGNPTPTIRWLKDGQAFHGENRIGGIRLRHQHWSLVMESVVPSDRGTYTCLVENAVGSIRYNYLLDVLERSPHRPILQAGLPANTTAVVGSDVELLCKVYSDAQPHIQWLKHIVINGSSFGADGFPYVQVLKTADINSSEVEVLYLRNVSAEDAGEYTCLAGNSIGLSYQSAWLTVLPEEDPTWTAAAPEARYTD

B1: ch3B6 (antibody, human IgG1, V domains shown)
VH: EVQLVESGGGLVQPGRSLKLSCAASGFTFSNYYMAWVRQAPKKGLEWVATINPSGTRTYYPDSVKGRFTLSRDSAKSSLYLQMNSLKSEDTATFYCARLYNNYAFDYWGQGVMVTVSS
VL: DVQMTQSPALAVSPGERVSISCRASESVSTLMHWYQQKPGQQPKLLIYGTSNLESGVPARFSGSGSGTDFTLNIDPVEADDTATYFCQQSWNDPPTFGGGTKLELK
notes: human-rat chimeric antibody, human IgG1 constant regions and human kappa constant region; also called chimeric 3B6
Question: What does the source list for B1?
Answer: binding result [1]: no binding (tested: 9 ug/mL); binding result (murine FGFR4): binds

B2: Hu3B6a (antibody, human IgG1, V domains shown)
VH: EVQLVESGGGLVQPGGSLRLSCAASGFTFSNYYMSWVRQAPGKGLEWVATINPSGTRTYYPDSVKGRFTISRDNAKNSLYLQMNSLRAEDTAVYYCARLYNNYAFDYWGQGTLVTVSS
VL: DIQMTQSPSSLSASVGDRVTITCRASESISTLLHWYQQKPGKAPKLLIYGTSNLESGVPSRFSGSGSGTDFTLTISSLQPEDFATYYCQQSWNDPPTFGGGTKVEIK
Question: How did the IC50 [2] turn out when B2 was run?
Answer: 0.13 µg/mL and 0.87 nM

B3: Hu3B6f (antibody, human IgG1, V domains shown)
VH: B2 VH with N74S, N77S
VL: B2 VL with I29V, L33M
Question: For B3, which IC50 [2] is on record?
Answer: 0.09 µg/mL and 0.6 nM

B4: Hu3B6d (antibody, human IgG1, V domains shown)
VH: B2 VH
VL: B2 VL with I29V, L33M
Question: B4 was tested. Which IC50 [2] did it give?
Answer: 0.03 µg/mL and 0.2 nM

B5: Hu3B6b (antibody, human IgG1, V domains shown)
VH: B2 VH with T50N
VL: B2 VL
Question: With B5 as the binder, how does the IC50 [2] read?
Answer: 0.4 µg/mL and 2.7 nM

B6: Hu3B6e (antibody, human IgG1, V domains shown)
VH: B2 VH with T50N
VL: B2 VL with I29V, L33M
Question: B6 was tested. Which IC50 [2] did it give?
Answer: 0.16 µg/mL and 1 nM

B7: Hu3B6c (antibody, human IgG1, V domains shown)
VH: B2 VH with N74S, N77S
VL: B2 VL
Question: Which IC50 [2] does the source give for B7 here?
Answer: 0.07 µg/mL and 0.47 nM

Source: patent US20210230280A1 (EXIRIS S R L, published 2021)
